From patent US5972608

Legend:
[1] = test system: SalI restriction endonuclease; test: cleavage_in_vitro; details: 125 mM NaCl
[2] = test system: SWI/SNF complex (Saccharomyces cerevisiae); test: cleavage_in_vitro; details: kcat of nucleosome remodeling, SalI-coupled; 1 mM ATP, 125 mM NaCl, 2.5 mM MgCl2; no stimulation without ATP or with ATPgS

Row | Substance | activity ([1]; naked DNA, 2.5 mM MgCl2, 37 C, +/-0.03e-4) [U^-1 min^-1] | activity ([1]; second slow phase, nucleosomal DNA, Kconf 3.2e-3, 2.5 mM MgCl2) [U^-1 min^-1] | activity [2] [min⁻¹]
1 | 11-mer 5S SalI array template (pCL7c) | 0.000286 |  | 
2 | 11-mer 5S SalI nucleosome array (pCL7c template with histone octamers) |  | 9.19e-07 | 0.22
